These results are taken from patent publication US6613358B2, “Sustained-release composition including amorphous polymer” (priority 1998, dated 2003).

A short description of data set [1]: Apparent partition coefficient water/1-octanol upon SDS addition.
From the text: The relative solubilities in two phases is given in terms of an apparent partition coefficient. The apparent partition coefficient is defined as the ratio of the equilibrium concentration in an organic phase to that in an aqueous phase. The actual value of the apparent partition coefficient, P, is dependent on the two solvent systems employed. In all cases herein described, the organic phase is 1-octanol and the aqueous phase is water alone or with a minimal amount of HCl added.
Apparent partition coefficients were measured by dissolving a peptide in 1.25 ml of an aqueous solution. Before SDS addition, the pH was measured on a Beckman pH meter. […] An equal volume of 1-octanol was added and the mixtures agitated, and then left undisturbed for several hours. Prior to analysis, the tubes were spun for 10 minutes at 4000 g. Each layer was removed and the absorbance measured on a Beckman DU-64 UV-visible spectrophotometer using I cm quartz cells. All apparent partition coefficients were corrected for changes in pH with differing SDS concentrations.
Results are described as logarithms of the apparent partition coefficient. A log P value of 0 means that the compound is equally soluble in water and the organic phase. […] All of the log P values reported herein have been corrected for slight changes in solubility with pH.
In data set [2] the test system is CCRF-CEM cells. Briefly: Cytotoxicity, MTS cell proliferation assay. The class given is cell-based, human. Particulars: Homo sapiens, 2-6 hours exposure, 72 hours incubation, read-out: IC50 (half-maximal growth inhibition). The method, then: (§1) The cytotoxicity of arginine dodecyl ester was investigated in cell culture with two types of cells (see Cory et al, Cancer Commun., 3, 207-212 (1991)): CCRF-CEM cells, a human T-cell leukemia cell line that grows in suspension (obtained from the American Type Culture Collection, ATCC); and a green monkey kidney cell line (COS-7) that grows in monolayers (also obtained from ATCC). For comparison, the cells were also exposed to […] bromide (DTAB) (Sigma).
(§2) Cells were plated into 96-well plates (Corning) in a total of 200 μL Dulbecco's modified minimal essential medium for COS-7 cells, RPMI 1640 for CEM cells, supplemented with penicillin G (50 U/ml), streptomycin sulfate (50 μg/ml), and 10% fetal calf serum, at 10,000 cells/well for COS-7 and 50,000 cells/well for CEM cells. The plates were incubated at 37° C. for 24 hours after plating. The cells were then exposed to various concentrations of the detergents. Each detergent concentration was used in 8 replicate wells. After 2-6 hours, media/detergent solutions were aspirated, and the wells were washed twice with PBS. For CEM suspension cells, centrifugation of the suspension at 1000× g for 5 min between each wash was required. After washing, 200 μL of fresh medium were added, and the cells were incubated for 72 hours. After 72 hours, cell proliferation was determined using the Promega CellTiter 96 AQueous Non-Radioactive Cell Proliferation Assay.
Background: Tetrazolium assays rely on reduction of a dye to a coloured formazan, in cell work by metabolically active cells.

Data set [3] concerns COS-7 cells. The data set is described as follows: Cytotoxicity, MTS cell proliferation assay. It counts as cell-based, green monkey. Particulars: Chlorocebus sabaeus, 2-6 hours exposure, 72 hours incubation, read-out: IC50 (half-maximal growth inhibition). The method, then: as §1
as §2, with “After washing, 200 μL of fresh medium were added, and the cells were incubated for 72 hours.” left out, “Assay. […]” for “Assay.”

A short description of data set [4]: Solubility of arginine octyl ester powder. It counts as physicochemical.
Data set [5] can be described thus: Surface tension, critical micelle concentration. The class given is physicochemical. Particulars: in 0.1 N HCl. The method, then:
Surface tension was measured using a Fisher surface tensiometer. Briefly, a platinum iridium ring with a diameter of 6 cm was lowered into the appropriate dilution of detergent in 0.1 N HCl. Surface tension was read at the point where the force on the ring upwards caused the ring to break contact with the liquid surface.

Data set [6] can be described thus: Partitioning of anionic compounds with arginine esters. Particulars: for log p: pH 5.5 buffer, 1 mg/mL. It counts as physicochemical. Here is the method: Stock solutions of the arginine esters were made by first dissolving the powder in 0.1 N HCl to give a 10 mM solution and then raising the pH to a value between 5 and 6. The pH should not be raised above 8.
Anionic compounds were dissolved in pH 5.5 buffer (10 mM bis-tris propane, 10 mM CaCl2, 10 mM KCl). Appropriate amounts of the stock solution of arginine ester (see above), the anionic compound and buffer were mixed so that the final concentration of the anionic material was 1 mg/mL. An equal volume of organic solvent was added, and the samples were vortexed for 15 seconds on high speed. Layers were separated by centrifugation at 4000 rpm for 5 minutes. Concentrations of the anionic material in the aqueous and organic layers were determined by UV spectroscopy on a Beckman DU-64 series spectrophotometer.

The format of data set [7] is physicochemical. The source says: Larger proteins can also form complexes with SDS. […] At higher SDS concentrations, hGH redissolves, presumably via micellar solubilization. […] Other proteins can also form complexes with SDS. Bovine pancreatic trypsin inhibitor (BPTI) is a small basic protein (MW 5900) with a well defined and stable structure (Wlodawer et. al. (1984) J. Mol. Biol. 180:301-329, and (1987) J. Mol. Biol. 193:145-156). […] In TMP, the globular structure is compromised, as determined by CD spectroscopy. Apparently, TMP is a strong enough solvent to displace water from the hydration sphere and destabilize the structure of BPTI. This mechanism of protein denaturation has been described in detail by Arakawa and […] (1982) Biochemistry 21:6536-6544. and (1982) Biochemistry 21:6545-6552.

A short description of data set [8]: Partitioning and dissolution of SDS-insulin complexes in non-aqueous solvents. It counts as physicochemical. Particulars: for Apparent Sol. / Log P: SDS-insulin complex. The text has this:
Dissolution of insulin-SDS complexes in other solvents was investigated as well (Table 1). Precipitates of SDS-insulin complexes were isolated and added to various organic solvents. […] Besides alcohols. SDS-insulin complexes are soluble in N-methylpyrrolidone (NMP), trimethylphosphate (TRIP), polyethylene glycol, ethanol, and t-butanol.

Data set [9] can be described thus: CD spectrometry of protein structure in organic solvent. It counts as physicochemical. Particulars: extracted from 1-octanol into 0.10 M HCl; 53 ug/ml, 5° C.
Method: CD spectra were recorded on an Aviv 62DS spectrophotometer equipped with a thermoelectric temperature unit. All temperatures were measured ±0.2° C. Samples were placed in strain-free quartz cells (pathlength of 1 mm) and spectra obtained taking data every 0.25 nm using a three second averaging time, and having a spectral bandwidth of 1 nm.
The pathlength was 1 mm, the sample concentration 53 ug/ml, and the sample temperature 5° C.
Data set [10] can be described thus: Thermal denaturation (Tm) following molar ellipticity at 222 nm. The class given is physicochemical. The text has this:
[define Tm. […] (FIG. 6), which is more than 30 degrees above that observed in water.

Data set [11] can be described thus: Melting point of SDS:insulin ion pairs in 1-octanol (CD signal and absorbance at 222 nm). The class given is physicochemical. Here is the method: Equal volumes of octanol were added to each SDS:insulin solution to partition the insulin into the octanol phase. […] Both circular dichroism (CD) signal and light scattering (as measured by changes in absorbance) were measured at 222 nm and the melting point determined by an inflection point in the measured scan.

Setting [12] is: organic solvent Propylene Glycol.
Where [13] appears, read: organic solvent Trifluoroethanol.
Where [14] appears, read: organic solvent Trimethyl phosphate.

Values joined by “and” are separate entries in the source; they are usually repeats but may differ in a detail not shown here. Identical values can stand only once. Peptide text beside a SMILES is read from it. Some results are limits rather than exact numbers.

On to `NC(=O)CC[C@@H]1NC(=O)[C@H](Cc2ccccc2)NC(=O)[C@H](Cc2ccc(O)cc2)NC(=O)[C@@H](N)CSSC[C@@H](C(=O)N2CCC[C@H]2C(=O)N[C@@H](CCCN=C(N)N)C(=O)NCC(N)=O)NC(=O)[C@H](CC(N)=O)NC1=O` [AVP, 8-Arg-vasopressin], for which the log p in data set [1] (pH 7) is more than 1. Further, the “increase of apparent partition coefficient” value in data set [1] (upon stoichiometric SDS addition, water/1-octanol) is on record as “nearly four orders of magnitude”.
One may read the IC50 as the point on the concentration scale where inhibition reaches its midpoint. With `CCCCCCCCCCCCCC[N+](C)(C)C` [DTAB, tetradecyltrimethylammonium bromide, reference compound], the IC50 in data set [2] was 20 µM; in [3] it was 80 µM.
Take `NCC(=O)N[C@@H](Cc1ccccc1)C(=O)O` [Gly-Phe] (H-Gly-Phe-OH): the “enhancement of partition coefficient with SDS” value in data set [1] (neutral pH (zwitterionic form)) is reported as “little enhancement of the partition coefficient is observed”. Also, the “partitioning with SDS” value in data set [1] (pH 3) is “mirrors the marked increase seen for Gly-PheNH2”.
For the compound `CCCCCCCCOC(=O)[C@@H](N)CCCNC(=N)N` [arginine octyl ester], in [4], the “dissolution in HCl” value is reported as “would only dissolve in 0.1 N or stronger HCl” and the solubility in water entry is reported as “insoluble”. Further, the solubility in organics entry in data set [4] (alcohols, hydrocarbons, aromatics, DMF and pyridine) is listed as “insoluble”. In data set [5], the “critical micelle concentration (cmc)” value is “about 6 mM and ~2.2 mg/ml”.
On to `Cc1ccc(S(=O)(=O)[O-])cc1.[Na+]` [p-toluenesulfonic acid, sodium salt], for which the log p was −2.2 in [6] (Ester C8 (arginine octyl ester), solvent isooctane); −0.353 in data set [6] (Ester C8 (arginine octyl ester), solvent octanol); −0.336 in data set [6] (Ester C12 (arginine dodecyl ester), solvent octanol); −2.7 in data set [6] (Ester none, solvent isooctane); −1.62 in [6] (Ester none, solvent octanol).
As to Gly-Phe-NH2, the “partitioning of SDS complex into 1-octanol” value in data set [1] (pH 7, 1:1 complex with SDS) was “readily partitions into 1-octanol”.
Turning to “bovine serum albumin: protein tested for partitioning with arginine dodecyl ester”, in data set [6] (arginine dodecyl ester added, solutions turned cloudy), the “partitioning into octanol layer” value was “none would partition into octanol layer”.
Take hGH: human growth hormone: the “solubility of SDS precipitate in 1-octanol” value in data set [7] is recorded as “not found to be soluble”. For the same compound, the “aqueous behaviour on addition of SDS” value in data set [7] (pH 2) was “precipitates from aqueous solution”. For the same compound, the “aqueous solubility on addition of SDS” value in [7] (pH 7.8) was “not affected”.
As to insulin, the “Apparent Sol.” value is listed as “insoluble” in [8] (organic solvent 1-Chlorooctane); “≧1.0 mg/ml” in [8] (organic solvent 1-octanol); “insoluble” in data set [8] (organic solvent CCl4); “insoluble” in data set [8] (organic solvent CH2Cl2); “≧1.0 mg/ml” in data set [8] (organic solvent DMF); “≧1.0 mg/ml” in [8] (organic solvent Ethanol). For the same compound, the “Apparent Sol.” value in data set [8] (organic solvent Ether) was “insoluble”; in data set [8] (organic solvent Ethyl acetate) it was “insoluble”; in data set [8] (organic solvent Hexane) it was “insoluble”; in data set [8] (organic solvent Methanol) it was “≧1.0 mg/ml”; in data set [8] (organic solvent Mineral Oil), “insoluble”; in data set [8] (organic solvent NMP), “≧1.0 mg/ml”. In addition, the “Apparent Sol.” value is given as “≧0.2 mg/ml” in [8] (organic solvent PEG 400); “≧0.5 mg/ml” in [8] (setting [12]); “≧0.2 mg/ml” in data set [8] (organic solvent TMP); “≧0.5 mg/ml” in data set [8] (setting [13]); “≧0.15 mg/ml” in data set [8] (setting [14]); “≧1.0 mg/ml” in [8] (organic solvent i-Propanol). Besides, the “Log P” value is “not detectable” in [8] (organic solvent 1-Chlorooctane); “≧1.2” in [8] (organic solvent 1-octanol); “miscible” in [8] (organic solvent Acetone); “not detectable” in data set [8] (organic solvent CCl4); “not detectable” in data set [8] (organic solvent CH2Cl2); “not detectable” in [8] (organic solvent Dimethoxyethane). Further, the “Log P” value in [8] (organic solvent Ethanol) is “miscible”; in data set [8] (organic solvent Ether) it was “not detectable”; in data set [8] (organic solvent Ethyl acetate), “miscible”; in data set [8] (organic solvent Hexane), “not detectable”; in data set [8] (organic solvent Methanol), “miscible”; in [8] (organic solvent Mineral Oil) it was “not detectable”. Further, the “Log P” value in [8] (organic solvent NMP), in data set [8] (organic solvent PEG 400), in data set [8] (setting [12]), in data set [8] (organic solvent THF), in data set [8] (organic solvent TMP) and in [8] (setting [13]) was “miscible” throughout. In addition, the “Log P” value in data set [8] (setting [14]) and in data set [8] (organic solvent i-Propanol) was “miscible” each time. Also, in data set [9], the “structure by CD after extraction back into aqueous phase” value is listed as “overall structure similar to that of native insulin”. For the same compound, the “Tm in 1-octanol above that observed in water” value in data set [10] was “more than 30 degrees”. Besides, the “Tm of thermal denaturation” value was 98 °C in data set [10] (in 1-octanol (SDS complex), molar ellipticity at 222 nm) and “about 65 °C” in data set [10] (in aqueous solution).
On to “insulin-SDS complex: hydrophobic ion pair complex of insulin with sodium dodecyl sulfate”, for which, in data set [8], the “solubility in organic solvents” value was “soluble”. In addition, in [10] (in 1-octanol, 70° C. for more than 1 hour), the “structure after prolonged heating” value is “appears to maintain its native structure”. The “melting point in octanol (apparent maximum)” value in data set [11] (6:1 SDS:insulin molar ratio, 200 ug/ml) was “about 116 °C”. Also, the “melting point in octanol, absorbance scan at 222 nm” value in data set [11] (9:1 SDS:insulin molar ratio) is 106 °C. Further, in [11] (9:1 SDS:insulin molar ratio, maxima of first derivative), the “melting point in octanol, CD scan at 222 nm” value came to 106 °C.
